Assay results: PMC6765261 (Proceedings of the National Academy of Sciences of the …, 2019)

Molecular target: the molecule itself
Assay: cryo-EM structure

B1: CCT2 subunit of yeast TRiC/CCT (natural protein, Saccharomyces cerevisiae, UniProt P39076 1-527, looked up)
chain: MSVQIFGDQVTEERAENARLSAFVGAIAVGDLVKSTLGPKGMDKLLQSASSNTCMVTNDGATILKSIPLDNPAAKVLVNISKVQDDEVGDGTTSVTVLSAELLREAEKLIDQSKIHPQTIIEGYRLASAAALDALTKAAVDNSHDKTMFREDLIHIAKTTLSSKILSQDKDHFAELATNAILRLKGSTNLEHIQIIKILGGKLSDSFLDEGFILAKKFGNNQPKRIENAKILIANTTLDTDKVKIFGTKFKVDSTAKLAQLEKAEREKMKNKIAKISKFGINTFINRQLIYDYPEQLFTDLGINSIEHADFEGVERLALVTGGEVVSTFDEPSKCKLGECDVIEEIMLGEQPFLKFSGCKAGEACTIVLRGATDQTLDEAERSLHDALSVLSQTTKETRTVLGGGCAEMVMSKAVDTEAQNIDGKKSLAVEAFARALRQLPTILADNAGFDSSELVSKLRSSIYNGISTSGLDLNNGTIADMRQLGIVESYKLKRAVVSSASEAAEVLLRVDNIIRARPRTANRQHM
binding result: binds

B2: CCT6 subunit of yeast TRiC/CCT (natural protein)
chain: not shown
binding result: binds
